Assay results reported in the emibetuzumab library of Makowski et al. (2022).

B1: VH:VL chains; a variant is named by its letters at X, in order (parent)
chain 1: QVQLVQSGAEVKKPGASVKVSCKASGYTFTDYXMHWVRQAPGQGLEWMGXVNPNXXXTTYNQKFEGRVTMTTDTSTSTAYMELRSLRSDDTAVYYCARXNXLDXWGQGTTVTVSS
chain 2: DIQMTQSPSSLSASVGDRVTITCSVSSSVSSIYLHWYQQKPGKAPKLLIYSTSNLASGVPSRFSGSGSGTDFTLTISSLQPEDFATYYCQVYSGYPLTFGGGTKVEIK

Variants of: B1
Experiment: yeast display scFab, FACS + sequencing
Procedure, shortened: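 For the non-specific binding call, a heavy-chain CDR mutant scFab library on the yeast surface was FACS-sorted and samples from two replicates were deep sequenced. Cells were labelled with anti-Myc and either biotinylated ovalbumin (260 μg/mL in PBSB, 3 h, room temperature) or soluble membrane proteins (130 μg/mL, 20 min on ice), with gates on the top 25% and bottom 10% of binders. With membrane protein and ovalbumin samples pooled, a sequence in ≥3 of 4 positive samples and no negatives was scored positive, and the converse rule scored negatives.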

Variant	non-specific binding call
YAAAAFGY	binds
VAAAGAAV	no binding
FAAAGFVA	binds
FAAETDVF	no binding
YAAETDVF	no binding
DAAGAAGV	no binding
SAAGADWS	no binding
DAAGADWY	no binding
DAAGASVD	no binding
YAAGASVD	no binding
SAAGGAAD chain 1 L45S	no binding
FAAGGAAS	binds
SAAGGAAV chain 1 L45S	no binding
SAAGGAGA chain 1 L45S	no binding
SAAGGASD chain 1 L45S	no binding
FAAGGAWA	binds
YAAGGDGV	no binding
SAAGGDGV chain 1 L45S	no binding
YAAGGDVA	no binding
SAAGGDVA chain 1 L45S	no binding
YAAGGFAY	binds
FAAGGSGD	binds
AAAGGSWS	binds
YAAGSDVY	no binding
YAAGSFGY	binds

Variant	non-specific binding call
FAAGSSGS	binds
YAAGSSWD	binds
SAAGSVWY	no binding
FAAGSYAV	binds
DAAKNDAV	no binding
YAAKNDGA	no binding
VAAKNDGA	no binding
VAAKSAAA chain 1 R38K	no binding
YAAKSDGY	binds
YAAKTAAA	binds
FAAKTAAA	binds
YAARAALD	binds
YAARAAVD	binds
FAARAFGV	binds
YAARASGF	binds
DAARAVSS	binds
SAARDAVA	no binding
SAARDFWV	no binding
FAARDSGA	no binding
DAARGAAA	no binding
YAARGAAV	binds
VAARGAAV	no binding
DAARGAGD	no binding
YAARGAWD	binds
VAARGDAA	no binding

Variant	non-specific binding call
DAARGDAA	no binding
DAARGDAV	no binding
DAARGDGA	no binding
DAARGDGV	no binding
DAARGDSA	no binding
DAARGDVV	no binding
VAARGFGS	no binding
YAARGSAA	binds
DAARGSSV	no binding
AAARNFLF chain 1 V68I	binds
FAARSYGD	binds
VAATAAGA	no binding
VAATADAV	no binding
VAATADSS	no binding
YAATADSS	no binding
DAATADSS	no binding
VAATADVA	no binding
VAATASWV	no binding
DAATAYGS	binds
FAATDSVS	binds
VAATGVSD	binds
VAEAAVGD	binds
DAEATDGA	no binding
VAEATDLY	no binding
SAEATDLY	no binding

Variant	non-specific binding call
YAEATDLY	no binding
DAEATDVA	no binding
DAEATSLV	no binding
DAEATSWV	no binding
DAEEDAGY	no binding
VAEEDAGY	no binding
SAEEDDVY	no binding
YAEEGVGY	binds
YAEESAGD	no binding
DAEESDGA	no binding
YAEESDGS	no binding
YAEESDVA	no binding
YAEESDWV	no binding
YAEESSAD	no binding
YAEESSGV	no binding
YAEESSSA	no binding
FAEGAAAV	no binding
FAEGAAGD	no binding
YAEGASSF	no binding
FAEGASSS	no binding
YAEGDAAD	no binding
VAEGDAAD	no binding
SAEGDAAD	no binding
AAEGDAAD	no binding
DAEGDAGD	no binding

Variant	non-specific binding call
DAEGDDGA	no binding
FAEGDDSA	no binding
FAEGDDVA	no binding
FAEGDDVV	no binding
FAEGDDVY	no binding
DAEGGSLD	no binding
SAEGGSSA	no binding
VAEGGYAV	binds
AAEGGYAV	binds
YAEGGYGV chain 1 V68I	binds
FAEGSYAF	binds
YAEKDAGD	no binding
VAEKDDGS	no binding
SAEKDDGS	no binding
AAEKDDLA	no binding
YAEKDFGV	no binding
DAEKDSGA	no binding
VAEKGAGD	no binding
VAEKGALA	no binding
DAEKGAWA	no binding
VAEKGDAA	no binding
VAEKGDGA	no binding
VAEKGDGV	no binding
VAEKGDLS	no binding
VAEKGDVF	no binding

Variant	non-specific binding call
VAEKGDWY	no binding
VAEKGFGA	no binding
VAEKGFLV	binds
VAEKGSGA	no binding
VAEKGSSA	no binding
DAERDSGV	no binding
SAERSAAF	no binding
VAERSFGV	binds
DAERTDGV	no binding
DAETAAAA	no binding
VAETAAAA	no binding
DAGAAAGD	no binding
YAGAAAVD	binds
DAGAADAV	no binding
DAGAADGA	no binding
DAGAADVV	no binding
VAGAGAGA	no binding
YAGAGAVY	no binding
VAGAGDSV	no binding
VAGAGDVV	no binding
YAGAGSAD	no binding
VAGAGYGA	binds
DAGEAAGD	no binding
DAGEAFSF	no binding
DAGEASAV	no binding

Variant	non-specific binding call
YAGEASAV	no binding
FAGEGAGV	no binding
YAGEGDGA	no binding
SAGEGDGV	no binding
SAGEGDVF	no binding
SAGEGDVY	no binding
SAGEGDWV	no binding
YAGEGFGV	no binding
DAGEGFVA	no binding
SAGEGSLV	no binding
YAGETFGA	binds
DAGGAAAA	no binding
DAGGAAAD	no binding
DAGGAAAV	no binding
DAGGAAGD	no binding
DAGGAAGV	no binding
DAGGAAVA	no binding
DAGGAAVS	no binding
DAGGADAV	no binding
DAGGADAY	no binding
DAGGADGV	no binding
DAGGADVA	no binding
DAGGADVY	no binding
DAGGADWA	no binding
DAGGASGV	no binding

Variant	non-specific binding call
DAGGASLD	no binding
DAGGASSA	no binding
DAGGASSS	no binding
DAGGASSV	no binding
VAGGAYLY	no binding
YAGGAYLY	no binding
VAGGDAAA	no binding
DAGGDAGD	no binding
VAGGDAGV	no binding
VAGGDALD	no binding
VAGGDAVA	no binding
VAGGDAVV	no binding
YAGGDDAA	no binding
YAGGDDAV	no binding
VAGGDDAV	no binding
DAGGDDGA	no binding
VAGGDDGA	no binding
YAGGDDGA	no binding
VAGGDDGF	no binding
YAGGDDSA	no binding
VAGGDDVA	no binding
VAGGDDVF	no binding
DAGGDDVY	no binding
VAGGDDWV	no binding
YAGGDFAY	no binding

Variant	non-specific binding call
VAGGDFGV	no binding
YAGGDSGV	no binding
FAGGDYGS	binds
VAGGDYLV	no binding
SAGGDYVF	no binding
AAGGDYVF	no binding
DAGGGAAV	no binding
VAGGGAAV	no binding
FAGGGAGA	no binding
DAGGGAGD	no binding
SAGGGAGD	no binding
FAGGGAGS	no binding
VAGGGAGV	no binding
FAGGGASD	no binding
DAGGGAVA	no binding
DAGGGAVV	no binding
DAGGGAVY	no binding
SAGGGAWV	no binding
FAGGGDAV	no binding
DAGGGDAV	no binding
FAGGGDGA	no binding
YAGGGDGA	no binding
